These results are taken from PMC2858980.

As a reminder, the Kd is the concentration at which binding is half-saturated. Lower therefore signals a tighter complex.

In assay [1] the target is IL-8(1–66) monomer. As to the kind of experiment: NMR titration.
Assay [2] deals with IL-8(1–72) R26C trapped dimer. As to the kind of experiment: NMR titration.

As to LWTWFEDEFANATGMPPVEKDYSP [CXCR1 N-domain 24-mer], the Kd in assay [1] was 10 µM; in assay [2], 340 µM.
